In US20180155415A1 (published 2018) one finds Ka and Kd data, which are given here for 1 molecule.

Assay [1] deals with T1, recombinant mouse proNGF (rm-proNGF) (mouse, UniProt P01139 19-241).
T1 construct: Pro-form of NGF
The assay is described as follows: SPR (BIAcore 2000), antibody immobilized (3000 RU), rm-proNGF injected, kinetic analysis. The method, then:
For rm-proNGF binding (panel C), the immobilization of the antibody was of 3000 RU.
(§1) Experiments were performed on CMS5 chips with amine coupling, using a BIAcore 2000 machine. Coupling was performed with a specific kit purchased at BIAcore and the coupling reaction was carried out according to manufacturer's instructions.
(§2) Anti-NGF antibodies were immobilized on chip, while mouse NGF (m-NGF, Alomone) or recombinant mouse proNGF (rm-proNGF) were injected at decreasing concentrations to obtain binding curves.
For orientation: In SPR one partner is held on a chip, and binding of the other changes the refractive index at the surface.

Assay [2] deals with T2, mouse NGF (m-NGF, Alomone) (mouse, UniProt P01139 122-241).
T2 construct: mature
The assay is described as follows: SPR (BIAcore 2000), antibody immobilized by amine coupling, m-NGF injected. The procedure:
For m-NGF binding, the immobilization of the antibody was of 3000 resonance units (RU) in the experiment of panel A and of 6000 RU in the experiment of panel B. The injected concentrations of the m-NGF are indicated on top of each curve.
as §1, §2

T2 sequence (P01139 122-241): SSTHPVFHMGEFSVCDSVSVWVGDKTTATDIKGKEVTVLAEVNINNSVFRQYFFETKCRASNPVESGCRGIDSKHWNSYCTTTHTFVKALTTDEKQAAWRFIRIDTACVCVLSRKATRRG
T1 sequence (P01139 19-241): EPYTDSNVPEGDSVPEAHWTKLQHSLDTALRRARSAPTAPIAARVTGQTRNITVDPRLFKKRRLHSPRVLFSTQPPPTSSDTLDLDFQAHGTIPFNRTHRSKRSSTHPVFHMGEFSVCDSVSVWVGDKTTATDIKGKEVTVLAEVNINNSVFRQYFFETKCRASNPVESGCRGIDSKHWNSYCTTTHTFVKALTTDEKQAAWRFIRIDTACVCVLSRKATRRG

B1: αD11 anti-NGF antibody (antibody, V domains shown)
VH: QVQLKESGPGLVQPSQTLSLTCTVSGFSLTNNNVNWVRQATGRGLEWMGGVWAGGATDYNSALKSRLTITRDTSKSQVFLKMHSLQSEDTATYYCARDGGYSSSTLYAMDAWGQGTTVTVSA
VL: DIQMTQSPASLSASLGETVTIECRASEDIYNALAWYQQKPGKSPQLLIYNTDTLHTGVPSRFSGSGSGTQYSLKINSLQSEDVASYFCQHYFHYPRTFGGGTKLELK
notes: Rat monoclonal antibody purified from hybridoma supernatant and immobilized on the chip; The tie to αD11 is indirect; also called alphaD11; aD11
Broadly, the Kd is the concentration at which binding is half-saturated. Take B1: in assay [1], the Ka amounted to 1.2e+09 M⁻¹ and the Kd worked out at 1.9 nM. In assay [2], the Ka was 3.55e+11 M⁻¹ and the affinity, expressed as Kd, was 0.00281 nM.
